According to the supplement of paper PMC10567573:

B1: C6orf223 (parent)
chain: TLARMSRRTRGPVERAAAAAAAAA
B2: TRAF3IP2 (parent)
chain: FMEKRNQWLVSQLSAASPDTGHDS
B3: FAM50A (parent)
chain: KALEILRKDFSELRSAGVEQLMYI

Variants of: B1
Experiment: protein stability index of a GFP-peptide fusion (GPS, HEK-293T) (PSI 1-6); higher = more stable
Details: c terminus: a fixed tail appended
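Note: lentivirally expressed fusions sorted by FACS into six bins by GFP to DsRed ratio, PSI derived from sequencing read proportions per bin multiplied by bin number.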

Variant	protein stability index
TLAIMSRRTRGPVERAAAAAAAAA	1.94
TEARMSRRTRGPVERAAAAAAAAA	4.7
TLARMSRRTRGWVERAAAAAAAAA	2.27

Variants of: B2
Experiment: as above
Details: c terminus: a fixed tail appended

Variant	protein stability index
FMEKRNQWLVSQLSAASPDTGHIS	1.65
FMEKRNQWLVSQLSAAIPDTGHDS	2.19
FMEKRNQWRVSQLSAASPDTGHDS	2.08

Variants of: B3
Experiment: as above
Details: c terminus: a fixed tail appended

Variant	protein stability index
KALEILRKDFSELRSAGVPQLMYI	4.03
KALEILRKDFSELRSAGVWQLMYI	1.95
KALEILRKDFSELRSAGVHQLMYI	3.15
KALEILRKDFSELRSAGVQQLMYI	2.95
KALEILRKDFSELRSAGVIQLMYI	2.66
KALEILRKDFSELRSAGVNQLMYI	2
KALEILRKDFSELRSAGVLQLMYI	2.18
KALEILRKDFSELRSAGVFQLMYI	2.9
KALEILRKDFSELRSAGVGQLMYI	1.76
KALEILRKDFSELRSAGGEQLMYI	2.52
KALEILRKDFSELRSAGEEQLMYI	2.9
KALEILRKDFSELRSAGKEQLMYI	2.61
KALEILRKDFSELRSAGSEQLMYI	1.28
KALEILRKDFSELRSAGLEQLMYI	3.85
KALEILRKDFSELRSAGFEQLMYI	4.7
KALEILRKDFSELRSAGYEQLMYI	2.02
KALEILRKDFSELRSAGIEQLMYI	3.33
KALEILRKDFSELRSAGNEQLMYI	2.35
KALEILRKDFSELRSAGVEQLMEI	2.41
KALEILRKDFSELRSAGVEQLMNI	1.03
KALEILRKDFSELRSAGVEQLMDI	1.45
KALEILRKDFSELRSAGVEQLMKI	2.67
KALEILRKDFSEKRSAGVEQLMYI	1.53

Variant	protein stability index
KALEILRKDFSEARSAGVEQLMYI	3.08
KALEILRKDFSEIRSAGVEQLMYI	2
KALEILRKDFSEHRSAGVEQLMYI	5.15
KALIILRKDFSELRSAGVEQLMYI	2.76
KALDILRKDFSELRSAGVEQLMYI	1.62
KALKILRKDFSELRSAGVEQLMYI	2.34
KALFILRKDFSELRSAGVEQLMYI	3.86
KALPILRKDFSELRSAGVEQLMYI	2.74
KALVILRKDFSELRSAGVEQLMYI	2.21
KALEILRKDFSELRRAGVEQLMYI	2.64
KALEILRKDFSELRDAGVEQLMYI	1.14
KALEILRKDFSELRFAGVEQLMYI	2.51
KALEILRKDFSELRHAGVEQLMYI	4.69
KALEILRKDFSELRAAGVEQLMYI	3.13
KALEILRIDFSELRSAGVEQLMYI	2.27
KALEILRDDFSELRSAGVEQLMYI	2.16
KALEILRNDFSELRSAGVEQLMYI	3.03
KALEILRGDFSELRSAGVEQLMYI	3.52
KALEILRWDFSELRSAGVEQLMYI	3.31
KALEILRLDFSELRSAGVEQLMYI	4.84
KALEILRFDFSELRSAGVEQLMYI	3.19
KALEILRRDFSELRSAGVEQLMYI	4.36
KALEILRKDVSELRSAGVEQLMYI	3.72

Variant	protein stability index
KALEILRKDNSELRSAGVEQLMYI	2.32
KALEILRKDASELRSAGVEQLMYI	1.74
KALEILRKDMSELRSAGVEQLMYI	2.52
KALEILRKDHSELRSAGVEQLMYI	3.24
KALEIPRKDFSELRSAGVEQLMYI	2.03
KALEIQRKDFSELRSAGVEQLMYI	2.51
KALEIDRKDFSELRSAGVEQLMYI	2
KALEIVRKDFSELRSAGVEQLMYI	2.36
KALEIRRKDFSELRSAGVEQLMYI	1.89
KALEIERKDFSELRSAGVEQLMYI	2.13
KALEIGRKDFSELRSAGVEQLMYI	1.57
KALEIKRKDFSELRSAGVEQLMYI	1.09
KALEIHRKDFSELRSAGVEQLMYI	1.55
KALEIFRKDFSELRSAGVEQLMYI	2.24
KALEITRKDFSELRSAGVEQLMYI	1.85
KALEISRKDFSELRSAGVEQLMYI	2.27
KALEIARKDFSELRSAGVEQLMYI	1.41
KALEINRKDFSELRSAGVEQLMYI	1.74
KALEILRKFFSELRSAGVEQLMYI	2.6
KALEILRKQFSELRSAGVEQLMYI	1.2
KALEILRKSFSELRSAGVEQLMYI	3.85
KALEILRKMFSELRSAGVEQLMYI	2.56
KALEILRKLFSELRSAGVEQLMYI	1.57

Variant	protein stability index
KALEILRKVFSELRSAGVEQLMYI	2.25
KALEILRKAFSELRSAGVEQLMYI	2.4
KALEILRKCFSELRSAGVEQLMYI	2.89
KALEILRKEFSELRSAGVEQLMYI	3.81
KALEILRKDFSELRSAGVEQGMYI	3
KALEILRKDFSELRSAGVEQDMYI	2.23
KALEILRKDFSELRSAGVEQNMYI	2.82
KALEILRKDFSELRSAGVEQRMYI	3.83
KALEILRKDFSELRSAGVEQPMYI	3.17
KALEILRKDFSELRSAGVEQAMYI	1.78
KALEILRKDFSELRSAGVEQYMYI	3.12
KALEILRKDFSRLRSAGVEQLMYI	4
KALEILRKDFSALRSAGVEQLMYI	2.97
KALEILRKDFSTLRSAGVEQLMYI	3.5
KALEILRKDFSLLRSAGVEQLMYI	2.09
KALEILRKDFSSLRSAGVEQLMYI	3.99
KALEILRKDFSVLRSAGVEQLMYI	2.75
KALEILRKDFSNLRSAGVEQLMYI	3.69
KALEILRKDFSQLRSAGVEQLMYI	3.76
KALEHLRKDFSELRSAGVEQLMYI	3.56
KALEWLRKDFSELRSAGVEQLMYI	2.75
KALEPLRKDFSELRSAGVEQLMYI	1.78
KALEDLRKDFSELRSAGVEQLMYI	1.55

Variant	protein stability index
KALETLRKDFSELRSAGVEQLMYI	2.4
KALEYLRKDFSELRSAGVEQLMYI	2.52
KALEFLRKDFSELRSAGVEQLMYI	1.5
KALEKLRKDFSELRSAGVEQLMYI	1.69
KALECLRKDFSELRSAGVEQLMYI	2.39
KALEMLRKDFSELRSAGVEQLMYI	3.79
KALEILRKDFSELRSAGVEQLFYI	2.34
KALEILRKDFSELRSAGVEQLPYI	2.46
KALEILRKDFSELRSAGVEQLIYI	1.97
KALEILRKDFSELRSAGVEQLEYI	1.27
KALEILRKDFSELRSAGVEQLCYI	2.56
KALEILRKDFSELRSAGVEQLWYI	2.3
KALEILRKDFSELRSAGVEQLQYI	2.37
KALEILRKDFSELRSAGVEQLTYI	2.22
KALEILRKDFSELRSAGVEQLDYI	2.22
DALEILRKDFSELRSAGVEQLMYI	1.28
TALEILRKDFSELRSAGVEQLMYI	1.91
EALEILRKDFSELRSAGVEQLMYI	1.88
VALEILRKDFSELRSAGVEQLMYI	1.18
NALEILRKDFSELRSAGVEQLMYI	1.86
QALEILRKDFSELRSAGVEQLMYI	1.78
MALEILRKDFSELRSAGVEQLMYI	3.33
YALEILRKDFSELRSAGVEQLMYI	3.42

Variant	protein stability index
PALEILRKDFSELRSAGVEQLMYI	2.04
AALEILRKDFSELRSAGVEQLMYI	3.07
KALEILRKDFSELCSAGVEQLMYI	4.11
KALEILRKDFSELKSAGVEQLMYI	1.51
KALEILRKDFSELESAGVEQLMYI	1.68
KALEILRKDFSELSSAGVEQLMYI	2.28
KALEILRKDFSELNSAGVEQLMYI	1.95
KALEILRKDFSELYSAGVEQLMYI	1.69
KALEILRKDFSELLSAGVEQLMYI	4.57
KALEILRKDFSELFSAGVEQLMYI	3.71
KALEILRKDFSELWSAGVEQLMYI	2.68
KALEILRKDFSELRSVGVEQLMYI	2.07
KALEILRKDFSELRSEGVEQLMYI	3.17
KALEILRKDFSELRSIGVEQLMYI	2.76
KALEILRKDFSELRSAGVEPLMYI	3.58
KALEILRKDFSELRSAGVEKLMYI	4.59
KALEILRKDFSELRSAGVEVLMYI	3.63
KALEILRKDFSELRSAGVEYLMYI	2.58
KALEILRKDFSELRSAGVELLMYI	2.75
KALEILRKDFSELRSAGVEMLMYI	1.54
KALEILRKDFSELRSAGVEDLMYI	3.81
KALEILRKDFSELRSAGVEQLMYN	1.21
KALEILRKDFSELRSAGVEQLMYK	1.94

Variant	protein stability index
KALEILRKDFSELRSAGVEQLMYE	1.01
KALEILRKDFSELRSAGVEQLMYS	1.54
KALEILRKDFSELRSAGVEQLMYC	1.98
KALEILRKDFSELRSAGVEQLMYQ	1.73
KALEILRKDFSELRSAAVEQLMYI	4.16
KALEILRKDFSELRSADVEQLMYI	1.95
KALEILRKDFSELRSAHVEQLMYI	1.88
KALEILRKDFSELRSAYVEQLMYI	2.95
KALEILRKDFYELRSAGVEQLMYI	1.21
KALEILRKDFHELRSAGVEQLMYI	2.97
KALEILRKDFRELRSAGVEQLMYI	2.76
KALEILRKDFDELRSAGVEQLMYI	1.6
KALEILRKDFIELRSAGVEQLMYI	3.09
KALEILRKDFEELRSAGVEQLMYI	2.51
KKLEILRKDFSELRSAGVEQLMYI	1.75
KPLEILRKDFSELRSAGVEQLMYI	1.95
KDLEILRKDFSELRSAGVEQLMYI	3.3
KNLEILRKDFSELRSAGVEQLMYI	1.04
KSLEILRKDFSELRSAGVEQLMYI	2.96
KLLEILRKDFSELRSAGVEQLMYI	1.15
KHLEILRKDFSELRSAGVEQLMYI	1.48
KRLEILRKDFSELRSAGVEQLMYI	3.76
KVLEILRKDFSELRSAGVEQLMYI	1.49

Variant	protein stability index
KWLEILRKDFSELRSAGVEQLMYI	2.73
KFLEILRKDFSELRSAGVEQLMYI	2.4
KCLEILRKDFSELRSAGVEQLMYI	4.79
KAREILRKDFSELRSAGVEQLMYI	2.52
KAHEILRKDFSELRSAGVEQLMYI	1.57
KAKEILRKDFSELRSAGVEQLMYI	2.58
KATEILRKDFSELRSAGVEQLMYI	1.84
KAMEILRKDFSELRSAGVEQLMYI	2.02
KADEILRKDFSELRSAGVEQLMYI	1.73
KACEILRKDFSELRSAGVEQLMYI	3.15
KANEILRKDFSELRSAGVEQLMYI	1.5
KAPEILRKDFSELRSAGVEQLMYI	2.77
KALEILIKDFSELRSAGVEQLMYI	2.18
KALEILAKDFSELRSAGVEQLMYI	1.25
KALEILSKDFSELRSAGVEQLMYI	2.59
KALEILPKDFSELRSAGVEQLMYI	2.28
KALEILTKDFSELRSAGVEQLMYI	2.91
KALEILFKDFSELRSAGVEQLMYI	3.25
KALEILLKDFSELRSAGVEQLMYI	3.87
KALEILHKDFSELRSAGVEQLMYI	2.58
KALEILEKDFSELRSAGVEQLMYI	1.54
